Assay results from publication PMC3787020.

Columns and labels:
[1] = molecular target: C33S mutant human TGF-β1 (pro-TGF-β1 and latent TGF-β1), expressed in 293 cells (human); experiment: non-reducing SDS-PAGE and western blot of immunoprecipitates; anti-GARP IP products of cell lysates; SDS-PAGE under non-reducing conditions; WB with anti-LAP antibodies
[2] = molecular target: C33S mutant human TGF-β1 (pro-TGF-β1 and latent TGF-β1), expressed in murine BW5147 T cells (human); experiment: as above
[3] = molecular target: TGF-β1 (pro-TGF-β1 and latent TGF-β1), endogenous in human T cells (human (endogenous in human T cells)); experiment: non-reducing SDS-PAGE and western blot of culture supernatants; cells incubated in serum-free medium for 24 or 48 hours; supernatants analysed by WB under non-reducing conditions with anti-GARP and anti-LAP antibodies
[4] = molecular target: wild type human TGF-β1 (pro-TGF-β1 and latent TGF-β1), expressed in 293 cells (human); experiment: as above

C33S mutant human TGF-β1 (pro-TGF-β1 and latent TGF-β1), expressed in 293 cells (ligand)
stoichiometry N [1]: 2

C33S mutant human TGF-β1 (pro-TGF-β1 and latent TGF-β1), expressed in murine BW5147 T cells (ligand)
stoichiometry N [2]: 2

TGF-β1 (pro-TGF-β1 and latent TGF-β1), endogenous in human T cells (ligand)
stoichiometry N [3]: 2

wild type human TGF-β1 (pro-TGF-β1 and latent TGF-β1), expressed in 293 cells (ligand)
stoichiometry N [4]: 2
